Earlier results, collected in patent US10507248B2, “Hydrophobic core carrier compositions for delivery of therapeutic agents, methods of making and using the same” (PharmaIn Corporation, priority 2005, dated 2019).

Conditions: in vivo

B1: native EGF: native Epidermal Growth Factor with short biological half-life (protein, UniProt P01133 23-1207, looked up)
Pro-epidermal growth factor: PQHWSCPEGTLAGNGNSTCVGPAPFLIFSHGNSIFRIDTEGTNYEQLVVDAGVSVIMDFHYNEKRIYWVDLERQLLQRVFLNGSRQERVCNIEKNVSGMAINWINEEVIWSNQQEGIITVTDMKGNNSHILLSALKYPANVAVDPVERFIFWSSEVAGSLYRADLDGVGVKALLETSEKITAVSLDVLDKRLFWIQYNREGSNSLICSCDYDGGSVHISKHPTQHNLFAMSLFGDRIFYSTWKMKTIWIANKHTGKDMVRINLHSSFVPLGELKVVHPLAQPKAEDDTWEPEQKLCKLRKGNCSSTVCGQDLQSHLCMCAEGYALSRDRKYCEDVNECAFWNHGCTLGCKNTPGSYYCTCPVGFVLLPDGKRCHQLVSCPRNVSECSHDCVLTSEGPLCFCPEGSVLERDGKTCSGCSSPDNGGCSQLCVPLSPVSWECDCFPGYDLQLDEKSCAASGPQPFLLFANSQDIRHMHFDGTDYGTLLSQQMGMVYALDHDPVENKIYFAHTALKWIERANMDGSQRERLIEEGVDVPEGLAVDWIGRRFYWTDRGKSLIGRSDLNGKRSKIITKENISQPRGIAVHPMAKRLFWTDTGINPRIESSSLQGLGRLVIASSDLIWPSGITIDFLTDKLYWCDAKQSVIEMANLDGSKRRRLTQNDVGHPFAVAVFEDYVWFSDWAMPSVMRVNKRTGKDRVRLQGSMLKPSSLVVVHPLAKPGADPCLYQNGGCEHICKKRLGTAWCSCREGFMKASDGKTCLALDGHQLLAGGEVDLKNQVTPLDILSKTRVSEDNITESQHMLVAEIMVSDQDDCAPVGCSMYARCISEGEDATCQCLKGFAGDGKLCSDIDECEMGVPVCPPASSKCINTEGGYVCRCSEGYQGDGIHCLDIDECQLGEHSCGENASCTNTEGGYTCMCAGRLSEPGLICPDSTPPPHLREDDHHYSVRNSDSECPLSHDGYCLHDGVCMYIEALDKYACNCVVGYIGERCQYRDLKWWELRHAGHGQQQKVIVVAVCVVVLVMLLLLSLWGAHYYRTQKLLSKNPKNPYEESSRDVRSRRPADTEDGMSSCPQPWFVVIKEHQDLKNGGQPVAGEDGQAADGSMQPTSWRQEPQLCGMGTEQGCWIPVSSDKGSCPQVMERSFHMPSYGTQTLEGGVEKPHSLLSANPLWQQRALDPPHQMELTQ
modifications: Pro-epidermal growth factor
In the case of B1, the biological half-life is listed as “few minutes”.
